Measurements as given in paper PMC8581553 (Cell reports, 2021).

B1: HA-SNAP-GluK3 (receptor, rat, UniProt P42264 32-919, looked up)
chain: MPHVIRIGGIFEYADGPNAQVMNAEEHAFRFSANIINRNRTLLPNTTLTYDIQRIHFHDSFEATKKACDQLALGVVAIFGPSQGSCTNAVQSICNALEVPHIQLRWKHHPLDNKDTFYVNLYPDYASLSHAILDLVQSLKWRSATVVYDDSTGLIRLQELIMAPSRYNIRLKIRQLPIDSDDSRPLLKEMKRGREFRIIFDCSHTMAAQILKQAMAMGMMTEYYHFIFTTLDLYALDLEPYRYSGVNLTGFRILNVDNAHVSAIVEKWSMERLQAAPRAESGLLDGVMMTDAALLYDAVHIVSVCYQRASQMTVNSLQCHRHKPWRFGGRFMNFIKEAQWEGLTGRIVFNKTSGLRTDFDLDIISLKEDGLEKVGVWSPADGLNITEVAKGRGPNVTDSLTNRSLIVTTLLEEPFVMFRKSDRTLYGNDRFEGYCIDLLKELAHILGFSYEIRLVEDGKYGAQDDKGQWNGMVKELIDHKADLAVAPLTITHVREKAIDFSKPFMTLGVSILYRKPNGTNPSVFSFLNPLSPDIWMYVLLAYLGVSCVLFVIARFSPYEWYDAHPCNPGSEVVENNFTLLNSFWFGMGSLMQQGSELMPKALSTRIIGGIWWFFTLIIISSYTANLAAFLTVERMESPIDSADDLAKQTKIEYGAVKDGATMTFFKKSKISTFEKMWAFMSSKPSALVKNNEEGIQRTLTADYALLMESTTIEYITQRNCNLTQIGGLIDSKGYGIGTPMGSPYRDKITIAILQLQEEDKLHIMKEKWWRGSGCPEEENKEASALGIQKIGGIFIVLAAGLVLSVLVAVGEFIYKLRKTAEREQRSFCSTVADEIRFSLTCQRRLKHKPQPPMMVKTDAVINMHTFNDRRLPGKDSMSCSTSLAPVFP
modifications: SNAP tag labelled with SBG-OG (Oregon Green)

What was measured:
[1] = target: the molecule itself; test: single-molecule pull-down
HA-SNAP-GluK3 = target: B1; test: single-molecule pull-down

| Binder | stoichiometry N [1] | stoichiometry N (HA-SNAP-GluK3) |
| --- | --- | --- |
| HA-SNAP-GluK1 (receptor, rat, UniProt P22756 31-949, looked up, SNAP tag labelled with SBG-OG (Oregon Green); for smFRET with BG-LD555 and/or BG-LD655) QTSPQVLRIGGIFETVENEPVNVEELAFKFAVTSINRNRTLMPNTTLTYDIQRINLFDSFEASRRACDQLALGVAALFGPSHSSSVSAVQSICNALEVPHIQTRWKHPSVDSRDLFYINLYPDYAAISRAVLDLVLYYNWKTVTVVYEDSTGLIRLQELIKAPSRYNIKIKIRQLPPANKDAKPLLKEMKKSKEFYVIFDCSHETAAEILKQILFMGMMTEYYHYFFTTLDLFALDLELYRYSGVNMTGFRKLNIDNPHVSSIIEKWSMERLQAPPRPETGLLDGMMTTEAALMYDAVYMVAIASHRASQLTVSSLQCHRHKPCALGPRFMNLIKEARWDGLTGRITFNKTDGLRKDFDLDIISLKEEGTEKASGEVSKHLYKVWKKIGIWNSNSGLNMTDGNRDRSNNITDSLANRTLIVTTILEEPYVMYRKSDKPLYGNDRFEAYCLDLLKELSNILGFLYDVKLVPDGKYGAQNDKGEWNGMVKELIDHRADLAVAPLTITYVREKVIDFSKPFMTLGISILYRKPNGTNPGVFSFLNPLSPDIWMYVLLACLGVSCVLFVIARFTPYEWYNPHPCNPDSDVVENNFTLLNSFWFGVGALMQQGSELMPKALSTRIVGGIWWFFTLIIISSYTANLAAFLTVERMESPIDSADDLAKQTKIEYGAVRDGSTMTFFKKSKISTYEKMWAFMSSRQQSALVKNSDEGIQRVLTTDYALLMESTSIEYVTQRNCNLTQIGGLIDSKGYGVGTPIGSPYRDKITIAILQLQEEGKLHMMKEKWWRGNGCPEEDSKEASALGVENIGGIFIVLAAGLVLSVFVAIGEFLYKSRKNNDVEQKGKSSRLRFYFRNKVRFHGSKKESLGVEKCLSFNAIMEELGISLKNQKKLKKKSRTKGKSSFTSILTCHQRRTQRKETVA | 4 | – |
| B1 | 4 | – |
| Halo-GluK5 (receptor, rat, UniProt Q63273 15-979, looked up, Halo tag labelled with CA-Sulfo549 (two-colour) or CA-Sulfo646 (three-colour)) NPSCQVLSSLRMAAILDDQTVCGRGERLALALAREQINGIIEVPAKARVEVDIFELQRDSQYETTDTMCQILPKGVVSVLGPSSSPASASTVSHICGEKEIPHIKVGPEETPRLQYLRFASVSLYPSNEDVSLAVSRILKSFNYPSASLICAKAECLLRLEELVRGFLISKETLSVRMLDDSRDPTPLLKEIRDDKVSTIIIDANASISHLVLRKASELGMTSAFYKYILTTMDFPILHLDGIVEDSSNILGFSMFNTSHPFYPEFVRSLNMSWRENCEASTYPGPALSAALMFDAVHVVVSAVRELNRSQEIGVKPLACTSANIWPHGTSLMNYLRMVEYDGLTGRVEFNSKGQRTNYTLRILEKSRQGHREIGVWYSNRTLAMNATTLDINLSQTLANKTLVVTTILENPYVMRRPNFQALSGNERFEGFCVDMLRELAELLRFRYRLRLVEDGLYGAPEPNGSWTGMVGELINRKADLAVAAFTITAEREKVIDFSKPFMTLGISILYRVHMGRKPGYFSFLDPFSPAVWLFMLLAYLAVSCVLFLAARLSPYEWYNPHPCLRARPHILENQYTLGNSLWFPVGGFMQQGSEIMPRALSTRCVSGVWWAFTLIIISSYTANLAAFLTVQRMEVPVESADDLADQTNIEYGTIHAGSTMTFFQNSRYQTYQRMWNYMQSKQPSVFVKSTEEGIARVLNSRYAFLLESTMNEYHRRLNCNLTQIGGLLDTKGYGIGMPLGSPFRDEITLAILQLQENNRLEILKRKWWEGGRCPKEEDHRAKGLGMENIGGIFVVLICGLIIAVFVAVMEFIWSTRRSAESEEVSVCQEMLQELRHAVSCRKTSRSRRRRRPGGPSRALLSLRAVREMRLSNGKLYSAGAGGDAGAHGGPQRLLDDPGPPGGPRPQAPTPCTHVRVCQECRRIQALRASGAGAPPRGLGTPAEATSPPRPRPGPTGPRELTEHE | – | ≤ 2 GluK5 subunits in a di-heteromer |
| HA-SNAP-GluK2 (receptor, rat, UniProt P42260 32-908, looked up, SNAP tag labelled with SBG-OG (Oregon Green); for smFRET with BG-LD555 and BG-LD655) TTHVLRFGGIFEYVESGPMGAEELAFRFAVNTINRNRTLLPNTTLTYDTQKINLYDSFEASKKACDQLSLGVAAIFGPSHSSSANAVQSICNALGVPHIQTRWKHQVSDNKDSFYVSLYPDFSSLSRAILDLVQFFKWKTVTVVYDDSTGLIRLQELIKAPSRYNLRLKIRQLPADTKDAKPLLKEMKRGKEFHVIFDCSHEMAAGILKQALAMGMMTEYYHYIFTTLDLFALDVEPYRYSGVNMTGFRILNTENTQVSSIIEKWSMERLQAPPKPDSGLLDGFMTTDAALMYDAVHVVSVAVQQFPQMTVSSLQCNRHKPWRFGTRFMSLIKEAHWEGLTGRITFNKTNGLRTDFDLDVISLKEEGLEKIGTWDPASGLNMTESQKGKPANITDSLSNRSLIVTTILEEPYVLFKKSDKPLYGNDRFEGYCIDLLRELSTILGFTYEIRLVEDGKYGAQDDVNGQWNGMVRELIDHKADLAVAPLAITYVREKVIDFSKPFMTLGISILYRKPNGTNPGVFSFLNPLSPDIWMYILLAYLGVSCVLFVIARFSPYEWYNPHPCNPDSDVVENNFTLLNSFWFGVGALMQQGSELMPKALSTRIVGGIWWFFTLIIISSYTANLAAFLTVERMESPIDSADDLAKQTKIEYGAVEDGATMTFFKKSKISTYDKMWAFMSSRRQSVLVKSNEEGIQRVLTSDYAFLMESTTIEFVTQRNCNLTQIGGLIDSKGYGVGTPMGSPYRDKITIAILQLQEEGKLHMMKEKWWRGNGCPEEESKEASALGVQNIGGIFIVLAAGLVLSVFVAVGEFLYKSKKNAQLEKRSFCSAMVEELRMSLKCQRRLKHKPQAPVIVKTEEVINMHTFNDRRLPGKETMA | 4 | – |
